One block for each molecule: values may come before it.
Key:
[1] = target: T1, acetyl-CoA synthetase (Acs1Mt) (Methanothermobacter thermautotrophicus, UniProt O26319); assay: inhibition of purified enzyme, hydroxamate assay; format: biochemical
T1 construct: gene MTH_217
T1 sequence (O26319 1-558): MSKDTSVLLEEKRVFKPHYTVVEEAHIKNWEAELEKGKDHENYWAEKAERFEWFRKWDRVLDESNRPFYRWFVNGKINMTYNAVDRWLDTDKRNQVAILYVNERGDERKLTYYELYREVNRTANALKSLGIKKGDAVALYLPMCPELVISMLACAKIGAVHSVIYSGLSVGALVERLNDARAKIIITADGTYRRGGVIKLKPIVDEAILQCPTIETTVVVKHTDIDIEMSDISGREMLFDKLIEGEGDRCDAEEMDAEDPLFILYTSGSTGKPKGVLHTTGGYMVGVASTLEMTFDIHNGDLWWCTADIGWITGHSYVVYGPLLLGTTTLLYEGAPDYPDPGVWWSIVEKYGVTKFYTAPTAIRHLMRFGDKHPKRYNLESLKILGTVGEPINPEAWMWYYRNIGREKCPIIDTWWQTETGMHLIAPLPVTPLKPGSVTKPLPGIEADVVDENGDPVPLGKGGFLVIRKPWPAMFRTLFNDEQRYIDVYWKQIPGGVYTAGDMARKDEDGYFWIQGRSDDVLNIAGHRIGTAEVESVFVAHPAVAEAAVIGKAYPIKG

Acs1Mt = target: T2, Acs1Mt (Methanothermobacter thermautotrophicus, UniProt Q2XNL6); assay: hydroxamate assay, reciprocal plot of velocity vs inhibitor; format: biochemical; details: all three substrates (acetate, MgATP, CoA) saturating; pH 7.5; 65 °C
T2 construct: gene acs1; recombinant in E. coli Rosetta Blue (DE3); Q-sepharose and phenyl sepharose purification; dimer; motif III 498-YTAGD-502

[2] = target: Acs1Mt Ala500Thr variant (Methanothermobacter thermautotrophicus); assay: SEC; Superose 12 gel filtration column, 50 mM Tris pH 7.5 with 150 mM KCl, calibrated with mass standards; subunit composition (dimer)
[3] = target: Acs1Mt Asp502Ala variant (Methanothermobacter thermautotrophicus); assay: as above
[4] = target: Acs1Mt Asp502Asn variant (Methanothermobacter thermautotrophicus); assay: as above
[5] = target: Acs1Mt Asp502Glu variant (Methanothermobacter thermautotrophicus); assay: as above
[6] = target: Acs1Mt Gly501Ala variant (Methanothermobacter thermautotrophicus); assay: as above
[7] = target: Acs1Mt Thr499Ala variant (Methanothermobacter thermautotrophicus); assay: as above
[8] = target: Acs1Mt Tyr498Ala variant (Methanothermobacter thermautotrophicus); assay: as above
[9] = target: Acs1Mt Tyr498Phe variant (Methanothermobacter thermautotrophicus); assay: as above
[10] = target: Methanothermobacter thermautotrophicus Acs1 (AMP-forming acetyl-CoA synthetase), unaltered (Methanothermobacter thermautotrophicus); assay: as above
purified protein = substrate: CC(=O)O; assay: purified protein; details: Mg2+
[11] = substrate: Nc1ncnc2c1ncn2[C@@H]1O[C@H](COP(=O)(O)OP(=O)(O)OP(=O)(O)O)[C@@H](O)[C@H]1O; assay: Michaelis-Menten kinetics of purified recombinant enzyme, hydroxamate assay (Km); format: biochemical, Methanothermobacter thermautotrophicus; details: Mg2+ active site; Asp502 interacts with the OH groups of the ribose moiety (model)
[12] = substrate: CC(C)(COP(=O)(O)OP(=O)(O)OC[C@H]1O[C@@H](n2cnc3c(N)ncnc32)[C@H](O)[C@@H]1OP(=O)(O)O)[C@@H](O)C(=O)NCCC(=O)NCCS; assay: as above; format: biochemical, Methanothermobacter thermautotrophicus; details: Mg2+

T2 sequence (Q2XNL6 1-634): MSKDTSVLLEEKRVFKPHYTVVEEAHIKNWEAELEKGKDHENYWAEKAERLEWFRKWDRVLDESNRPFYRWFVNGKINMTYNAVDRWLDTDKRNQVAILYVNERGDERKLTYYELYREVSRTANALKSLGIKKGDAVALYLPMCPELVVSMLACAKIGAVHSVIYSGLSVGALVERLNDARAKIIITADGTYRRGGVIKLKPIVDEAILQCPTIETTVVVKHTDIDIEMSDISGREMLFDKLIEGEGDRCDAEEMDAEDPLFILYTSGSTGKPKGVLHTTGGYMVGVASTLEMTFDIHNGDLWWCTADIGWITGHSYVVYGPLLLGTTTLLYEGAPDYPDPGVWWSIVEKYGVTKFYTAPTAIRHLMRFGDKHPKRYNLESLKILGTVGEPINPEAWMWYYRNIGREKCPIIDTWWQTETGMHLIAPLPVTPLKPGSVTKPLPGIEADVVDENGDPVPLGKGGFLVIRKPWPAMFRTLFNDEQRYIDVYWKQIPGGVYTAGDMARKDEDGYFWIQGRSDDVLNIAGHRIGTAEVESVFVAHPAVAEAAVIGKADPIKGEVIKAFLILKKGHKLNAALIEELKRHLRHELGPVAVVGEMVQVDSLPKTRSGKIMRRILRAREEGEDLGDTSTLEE

Ki [1]: 53 mM
Molecule: O=C[C@H](O)[C@H](O)[C@H](O)CO [ribose]

Ki (Acs1Mt): 53 mM
Molecule: OC1OC[C@@H](O)[C@@H](O)[C@H]1O (some centres unmarked) [ribose]

stoichiometry N [2]: 2
Molecule: Acs1Mt Ala500Thr variant (enzyme)

stoichiometry N [3]: 2
Molecule: Acs1Mt Asp502Ala variant (enzyme)

stoichiometry N [4]: 2
Molecule: Acs1Mt Asp502Asn variant (enzyme)

stoichiometry N [5]: 2
Molecule: Acs1Mt Asp502Glu variant (enzyme)

stoichiometry N [6]: 2
Molecule: Acs1Mt Gly501Ala variant (enzyme)

stoichiometry N [7]: 2
Molecule: Acs1Mt Thr499Ala variant (enzyme)

stoichiometry N [8]: 2
Molecule: Acs1Mt Tyr498Ala variant (enzyme)

stoichiometry N [9]: 2
Molecule: Acs1Mt Tyr498Phe variant (enzyme)

stoichiometry N [10]: 2
Molecule: Methanothermobacter thermautotrophicus Acs1 (AMP-forming acetyl-CoA synthetase), unaltered (enzyme)

B1: acetyl-CoA synthetase (Acs1Mt) (Methanothermobacter thermautotrophicus str. Delta H) (protein)
chain: MSKDTSVLLEEKRVFKPHYTVVEEAHIKNWEAELEKGKDHENYWAEKAERFEWFRKWDRVLDESNRPFYRWFVNGKINMTYNAVDRWLDTDKRNQVAILYVNERGDERKLTYYELYREVNRTANALKSLGIKKGDAVALYLPMCPELVISMLACAKIGAVHSVIYSGLSVGALVERLNDARAKIIITADGTYRRGGVIKLKPIVDEAILQCPTIETTVVVKHTDIDIEMSDISGREMLFDKLIEGEGDRCDAEEMDAEDPLFILYTSGSTGKPKGVLHTTGGYMVGVASTLEMTFDIHNGDLWWCTADIGWITGHSYVVYGPLLLGTTTLLYEGAPDYPDPGVWWSIVEKYGVTKFYTAPTAIRHLMRFGDKHPKRYNLESLKILGTVGEPINPEAWMWYYRNIGREKCPIIDTWWQTETGMHLIAPLPVTPLKPGSVTKPLPGIEADVVDENGDPVPLGKGGFLVIRKPWPAMFRTLFNDEQRYIDVYWKQIPGGVYTAGDMARKDEDGYFWIQGRSDDVLNIAGHRIGTAEVESVFVAHPAVAEAAVIGKAYPIKG
Km (purified protein): 3.5 ± 0.1 mM
Km [11]: 3.3 ± 0.2 mM
Km [12]: 0.19 ± 0.003 mM

From paper PMC3438747, “Role of Motif III in Catalysis by Acetyl-CoA Synthetase” (Archaea, 2012)
